Laboratory results as given in patent publication US20210340207A1 (Merck Sharp & Dohme, published 2021).
*1 amine or outer side, *2 acyl side, *3 side chain or, on linkers, in order; H or OH if unused. Side-chain parts run from the residue outwards. [ ]: non-standard residue; d: D form. pAMF = para-azidomethylphenylalanine, [N-]=[N+]=NCc1ccc(C[C@H](N[*:1])C(=O)[*:2])cc1

Legend:
Experiment in all cases: cell-based or functional assay
[1] = target: T1, mouse IL-2Rαβγc (on CTLL2-STAT5 reporter cells) (mouse, UniProt P01590 22-268; P16297 27-539; P34902 23-369)
T1 sequence (looked up) 1: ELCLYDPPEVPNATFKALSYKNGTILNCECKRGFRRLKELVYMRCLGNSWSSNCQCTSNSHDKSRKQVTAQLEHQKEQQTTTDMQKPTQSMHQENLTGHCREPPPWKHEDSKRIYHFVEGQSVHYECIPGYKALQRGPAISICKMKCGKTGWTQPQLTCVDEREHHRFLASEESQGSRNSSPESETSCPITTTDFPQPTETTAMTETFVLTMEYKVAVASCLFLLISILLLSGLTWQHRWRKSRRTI
T1 sequence (looked up) 2: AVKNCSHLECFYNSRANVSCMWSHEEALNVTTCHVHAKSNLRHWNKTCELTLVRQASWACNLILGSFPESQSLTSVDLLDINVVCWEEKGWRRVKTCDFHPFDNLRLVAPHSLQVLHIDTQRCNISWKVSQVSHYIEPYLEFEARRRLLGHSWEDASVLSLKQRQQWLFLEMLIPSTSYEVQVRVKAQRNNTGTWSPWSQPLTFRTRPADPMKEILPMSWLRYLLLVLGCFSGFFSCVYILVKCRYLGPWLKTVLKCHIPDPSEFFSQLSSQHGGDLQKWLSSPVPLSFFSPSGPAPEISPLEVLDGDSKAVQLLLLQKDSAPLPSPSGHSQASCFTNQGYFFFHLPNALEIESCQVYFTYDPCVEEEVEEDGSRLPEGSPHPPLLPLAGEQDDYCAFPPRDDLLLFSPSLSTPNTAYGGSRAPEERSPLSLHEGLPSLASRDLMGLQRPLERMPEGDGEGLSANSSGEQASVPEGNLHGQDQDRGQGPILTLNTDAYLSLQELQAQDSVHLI
T1 sequence (looked up) 3: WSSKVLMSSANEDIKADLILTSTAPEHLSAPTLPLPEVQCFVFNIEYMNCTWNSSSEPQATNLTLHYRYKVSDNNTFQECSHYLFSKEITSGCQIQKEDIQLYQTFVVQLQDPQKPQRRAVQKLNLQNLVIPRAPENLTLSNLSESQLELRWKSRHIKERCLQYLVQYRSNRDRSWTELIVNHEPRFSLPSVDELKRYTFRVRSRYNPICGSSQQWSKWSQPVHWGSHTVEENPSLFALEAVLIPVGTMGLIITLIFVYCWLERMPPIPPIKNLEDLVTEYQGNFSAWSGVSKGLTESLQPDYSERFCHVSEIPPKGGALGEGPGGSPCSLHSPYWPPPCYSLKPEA

[2] = target: T2, human IL-2Rβγc (on DERL-7 cells, U2OS IL2RB/IL2RG cells, CD25 knockout Kit225-STAT5 cells, primary CD8+ CTLs) (human, UniProt P14784 27-551; P31785 23-369)
T2 sequence (looked up) 1: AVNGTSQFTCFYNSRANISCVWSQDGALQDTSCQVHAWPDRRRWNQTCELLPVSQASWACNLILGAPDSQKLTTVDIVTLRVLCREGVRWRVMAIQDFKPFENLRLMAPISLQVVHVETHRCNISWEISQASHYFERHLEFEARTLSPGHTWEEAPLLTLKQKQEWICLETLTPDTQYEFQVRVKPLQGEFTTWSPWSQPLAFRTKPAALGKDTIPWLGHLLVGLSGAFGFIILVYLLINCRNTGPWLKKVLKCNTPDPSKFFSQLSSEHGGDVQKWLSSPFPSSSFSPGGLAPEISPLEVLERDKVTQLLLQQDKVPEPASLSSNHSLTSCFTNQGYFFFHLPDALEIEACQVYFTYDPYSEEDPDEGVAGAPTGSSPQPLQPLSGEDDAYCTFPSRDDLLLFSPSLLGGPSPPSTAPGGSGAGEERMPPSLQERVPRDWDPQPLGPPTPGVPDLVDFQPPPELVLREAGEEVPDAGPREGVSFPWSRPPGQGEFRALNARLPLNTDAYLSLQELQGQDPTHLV
T2 sequence (looked up) 2: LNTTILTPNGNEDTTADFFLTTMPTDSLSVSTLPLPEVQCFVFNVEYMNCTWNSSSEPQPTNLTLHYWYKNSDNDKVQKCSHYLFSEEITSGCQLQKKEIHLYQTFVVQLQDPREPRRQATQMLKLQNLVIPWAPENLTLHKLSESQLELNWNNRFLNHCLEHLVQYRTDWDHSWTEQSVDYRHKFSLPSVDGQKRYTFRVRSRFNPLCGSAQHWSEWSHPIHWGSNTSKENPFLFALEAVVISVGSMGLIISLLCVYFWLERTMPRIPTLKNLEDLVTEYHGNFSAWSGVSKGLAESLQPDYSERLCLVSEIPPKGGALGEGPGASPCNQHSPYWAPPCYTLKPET

[3] = target: T3, human IL-2Rαβγc (on Kit225-STAT5 reporter cells, NK-92 cells, primary Treg cells) (human, UniProt P01589 22-272; P14784 27-551; P31785 23-369)
T3 sequence (looked up) 1: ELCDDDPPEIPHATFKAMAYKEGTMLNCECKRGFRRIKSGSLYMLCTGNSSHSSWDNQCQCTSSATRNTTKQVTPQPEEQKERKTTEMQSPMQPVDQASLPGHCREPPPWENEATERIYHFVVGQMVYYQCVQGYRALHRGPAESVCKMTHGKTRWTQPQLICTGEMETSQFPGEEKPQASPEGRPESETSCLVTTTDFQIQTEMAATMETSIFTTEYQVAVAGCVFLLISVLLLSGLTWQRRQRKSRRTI
T3 sequence (looked up) 2: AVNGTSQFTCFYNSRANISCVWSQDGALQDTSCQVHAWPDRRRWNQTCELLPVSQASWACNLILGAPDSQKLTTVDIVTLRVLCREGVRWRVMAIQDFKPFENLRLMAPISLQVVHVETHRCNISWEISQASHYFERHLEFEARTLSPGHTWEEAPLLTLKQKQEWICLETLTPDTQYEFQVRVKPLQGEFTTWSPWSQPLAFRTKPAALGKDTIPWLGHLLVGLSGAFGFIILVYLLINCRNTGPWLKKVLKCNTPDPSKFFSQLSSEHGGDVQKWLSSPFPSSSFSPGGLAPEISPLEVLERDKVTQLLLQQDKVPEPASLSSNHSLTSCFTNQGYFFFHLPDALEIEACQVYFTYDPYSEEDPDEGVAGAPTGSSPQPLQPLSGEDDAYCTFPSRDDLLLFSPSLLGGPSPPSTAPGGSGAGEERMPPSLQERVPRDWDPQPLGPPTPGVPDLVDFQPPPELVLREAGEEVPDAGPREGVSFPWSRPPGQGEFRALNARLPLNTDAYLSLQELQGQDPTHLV
T3 sequence (looked up) 3: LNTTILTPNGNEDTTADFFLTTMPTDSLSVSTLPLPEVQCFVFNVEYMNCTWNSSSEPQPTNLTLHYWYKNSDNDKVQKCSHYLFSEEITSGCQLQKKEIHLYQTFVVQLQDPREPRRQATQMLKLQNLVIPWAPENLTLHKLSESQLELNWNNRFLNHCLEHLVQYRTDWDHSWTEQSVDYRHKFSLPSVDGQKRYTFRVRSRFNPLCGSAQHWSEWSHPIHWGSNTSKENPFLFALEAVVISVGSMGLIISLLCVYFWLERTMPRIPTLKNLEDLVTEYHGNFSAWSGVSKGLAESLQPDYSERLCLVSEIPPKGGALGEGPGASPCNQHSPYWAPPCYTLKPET

B1: Ald_S4pAMF(PEG1)/R37A/F41K (CON1) (ligand)
chain: PTS[pAMF]([DBCO‑triazole-mPEG 30 kDa])STKKTQLQLEHLLLDLQMILNGINNYKNPKLTAMLTKKFYMPKKATELKHLQCLEEELKPLEEVLNLAQSKNFHLRPRDLISNINVIVLELKGSETTFMCEYADETATIVEFLNRWITFSQSIISTLT
modifications: not fully specified (bridges)
notes: also called Des-A1_IL-2_S4pAMF(PEG1)/R37A/F41K/C124S
STAT5-CTLL2 EC50 [1]: 57.4 nM
STAT5-CTLL2 EC50 Fold-change [1]: 5300 fold
DERL-7 EC50 Fold-change [2]: 17 fold
DERL-7 proliferation EC50 [2]: 0.73 nM
Kit225-STAT5 EC50 [3]: 0.45 nM
Kit225-STAT5 EC50 Fold-change [3]: 437 fold
NK-92 EC50 Fold-change [3]: 117 fold
NK-92 proliferation EC50 [3]: 0.68 nM
